Two substances from paper PMC10611767, “TudS desulfidases recycle 4-thiouridine-5’-monophosphate at a catalytic [4Fe-4S] cluster” (Communications Biology, 2023) can be followed below.

Common to all, as to assay: purified protein
Common to all, as to conditions: anaerobic, normalized to 4 Fe per protein

Data set [1] relates to O=c1[nH]c(=S)ccn1[C@@H]1O[C@H](CO)[C@@H](O)[C@H]1O.
In a further data set the test system is O=c1[nH]ccc(=S)[nH]1.
Data set [2] relates to O=c1[nH]c(=S)ccn1[C@@H]1O[C@H](COP(=O)(O)OP(=O)(O)OP(=O)(O)O)[C@@H](O)[C@H]1O.
Data set [3] concerns O=c1[nH]c(=S)ccn1[C@@H]1O[C@H](COP(=O)(O)O)[C@@H](O)[C@H]1O.
The mark [4] stands for this setting: 100 mM MOPS/KOH pH 7.3, 30 °C, anaerobically purified.
Where [5] appears, read: 100 mM MOPS/KOH pH 7.3, anaerobically purified.

Usually Km stands for the concentration of substrate that gives half-maximal velocity. The term Vmax denotes the top rate of the reaction or transport when substrate is in excess. As a reminder, the kcat is the maximal rate divided by the concentration of active sites. In general, kcat/Km refers to the turnover number divided by the Michaelis constant. On to TudS_A (uncultured bacterium), for which, in data set [1] (setting [4]), the Km stood at 3100 ± 600 µM, the Vmax is 30.1 µmol/min/mg, the kcat came to 8.8 ± 0.9 s⁻¹ and the kcat/Km was 2880 M⁻¹ s⁻¹. Also, in the data set with O=c1[nH]ccc(=S)[nH]1 (setting [4]), the Km came to 240 ± 30 µM, the Vmax was 2.4 µmol/min/mg, the kcat was found to be 0.7 ± 0.05 s⁻¹ and the kcat/Km was 2900 M⁻¹ s⁻¹. Further, in data set [2] (setting [4]), the Km amounted to 100 ± 23 µM, the Vmax stood at 234 µmol/min/mg, the kcat was 68.6 ± 3.4 s⁻¹ and the kcat/Km amounted to 685000 M⁻¹ s⁻¹. Also, in data set [3] (setting [4]), the Km worked out at 38 ± 13 µM, the Vmax stood at 1000 µmol/min/mg, the kcat was 293 ± 44 s⁻¹ and the kcat/Km turned out to be 7.77e+06 M⁻¹ s⁻¹.

On to TudS_P (Pseudomonas sp. MIL19), for which the Km in data set [1] (setting [5]) amounted to 200 ± 90 µM; with O=c1[nH]ccc(=S)[nH]1 (setting [5]) it was 1490 ± 270 µM; in data set [2] (setting [5]) it was 117 ± 26 µM; in data set [3] (setting [5]), 20 ± 7 µM. Also, the Vmax was found to be 64.3 µmol/min/mg in data set [1] (setting [5]), 15.9 µmol/min/mg with O=c1[nH]ccc(=S)[nH]1 (setting [5]), 168 µmol/min/mg in data set [2] (setting [5]) and 447 µmol/min/mg in data set [3] (setting [5]). The kcat worked out at 19.9 ± 4.7 s⁻¹ in data set [1] (setting [5]), 4.93 ± 0.43 s⁻¹ in the data set with O=c1[nH]ccc(=S)[nH]1 (setting [5]), 52.3 ± 2.4 s⁻¹ in data set [2] (setting [5]) and 138 ± 16 s⁻¹ in data set [3] (setting [5]). The kcat/Km in data set [1] (setting [5]) was determined as 103000 M⁻¹ s⁻¹; in the data set with O=c1[nH]ccc(=S)[nH]1 (setting [5]) it was 3270 M⁻¹ s⁻¹; in data set [2] (setting [5]) it was 448000 M⁻¹ s⁻¹; in data set [3] (setting [5]), 7.63e+06 M⁻¹ s⁻¹.
